A short description of the series: soluble on expression in E. coli; label from the status in PepcDB or PDB records.
On to “MGSDKIHHHHHHEILKVLRKNNDFQNWEEIKNRLHPIIIKHVEGEPVYQFFDTLNDNSFEKNGQLISLSTQPINSFVPYHIHNYVEMMVVLSGSCVIKTANEAITLNENEIIIIGCKTIHKVEPIDDKTIMIKIALKRAAFSLEDLVFLTHSHNAQSVSSIVFSLLSSDDSHGAFNVFRTHHDVHVVNKIYNIISEYYCPDDYSNQIIKLEILELFIRLIRIASKDAVFQTQKEVQNNNEIDLLTLLLYIERNYKTINLKSMAKYFNFNPNYLSSILREKTGYTFIKLVHLQRINVAAEYLALTNTPVEGISLAVGYENPSYFYKMFKKYMGCSPKEYRQKQIAG”, for which the “soluble on expression in E. coli” value is on record as “not soluble”. Take “MQDVFIIGSRGLPAKYGGFETFVEELISHQSSKNIRYHVACLSDTKHKVHFDYKGADCFYLNPPKLGPARVIAYDMMAITYALSYSDQHQIQNPIFYVLGNTVGAFIAPFVKQIHNRGGRFFINPDGLEWKRSKWSRPVQAYLKFSEKQMTRQADLVISDNIGIDRYLKQVYPWSKTCFIAYGTQTQPSRLATADSKVRAYFQTFDIREKDYYLILGRFVPENNYETAIKEFMASSTKRDLVIICNHEGNAYFKQLLAETECDKDPRIKFVGTLYDKELLAYIREQAYAYIHGHEVGGTNPGLLEALAHTNLNLVLGVDFNQSVAKSAALYWTKQKGQLAELINQVDAGFDSDHLGKEAKAIIQEHYTWEKIVGEYEALFLNEH”: the “soluble on expression in E. coli” value is “not soluble”. The entry for “QVQLLESGAELVKPGASVKLSCKASGYTFTSYWMHWVKQRPGRGLEWIGRIDPNSGGTKYNEKFKSKATLTVDKPSSTAYMQLSSLTSEDSAVYYCTRRDSDYWGAGTTVTVSSASTKGPSVFPLAPSSKSTSGGTAALGCLVKDYFPEPVTVSWNSGALTSGVHTFPAVLQSSGLYSLSSVVTVPSSSLGTQTYICNVNHKPSNTKVDKKVEPKSCDKT” is “soluble”; for “KDTIALVVSTLNNPFFVSLKDGAQKEADKLGYNLVVLDSQNNPAKELANVQDLTVRGTKILLINPTRSDAVGNAVKMANQANIPVITLDRQATKGEVVSHIASDNVLGGKIAGDYIAKKAGEGAKVIELQGIAGTSAARERGEGFQQAVAAHKFNVLASQPADFDRIKGLNVMQNLLTAHPDVQAVFAQNDEMALGALRALQTAGKSDVMVVGFDGTPDGEKAVNDGKLAATIAQLPDQIGAKGVETADKVLKGEKVQAKYPVDLKLVVKQ” it is “soluble”; for “MSLGSGSGLSYNAGITQDNFLGMGSSLGLNGSRNTDSTNVNLSYTEPYFTKDGVSLGGNIFYEDYDNSARKASAAYKRKTYGASGTLGFPVDENNSYYLGLGYTHDKLRNVEREYTREKYVNSMKFPINPQNSHYDRIQSADFDLSFGWNYNNLNRGYFPTAGSSANISGKLTLPGSDNKYYQVGTNFSGYIPLNSEHKWVIATKGGLAYTNSFGGKEVPFYQLYSAGGMGSLRGFAGGSIGPKAIYYREDGFKAPSQDVIGGNAMVNASLELIIPAPFISDKYQHNVRTSVFVDAATVWNTKWKQSKADYPNLPDFGDYKRVRASAGIALQWQSPIGPLSFSYAKPIKKYAGDEIEQFQFTVGSTFEGHHHHHH” it is “not soluble”. The entry for “MSKSDLRMKSNADKVIANLKKMTPIAEKEGAAMVNDSLAKIYQLIVPMTPIKSGDLRRGYRIIKARKLSSGRIVGALINNEKYFRYVNDGHRTKNGGFVKGRFMLQKSNKLANATYIPKRFKQMAIIIVKKG” is “not soluble”; for “TSPLYTGAVPRANRIVQQLVEAGADLANIRTMFRNMLRGEEMILSRAEQNVFLQHFPDMLPCGIDRNSELAIALREALRRADSQQAARAPARTPPRSSVRTPERSPAPRTATESSSGSNQRSLLGRFAGLMTSNQRRPSSASNASTSQRPVDRNPPRINLMPTGANRVAMRNRGNNEADAALQALAQNGINMEDLRAALEAYIVWLRPIPLDIANALEGVGITPRFDNPEEAKVDNPLMNLSSALKRRLDA” it is “not soluble”; for “MGSDKIHHHHHHMKCSLGLEKCPDDTLRCFPKIEQPFGIVIFGASGDLTKRKLIPALNRLFEAGILPERFFVLGAARTKMDDKKFRSRFDANPDFLEHCSYISVDYQDPESFKQLKNTIETLIKRIDSSNLVFYLAVPPDLYIPILENLSKTGLNEKPARVVIEKPFGKDLESARRLEDTLQKYFQEDQIFRIDHYLGKETVQNILVFRFANFIFEEIWNNKFVDHVQITMAEDIGVEHRAGYFENVGLLRDIFQNHMLQILALIAMEPPSSFNGENFRNERVKLLRSIRPFPVEELESWIVRGQYGRGVVNGKEVPAYREEPGVAKDSNVETFVAMKLFIDNWRWSGVPFYLRSGKRLPKKITEVAVVFKKIPHSIFAGVPSDELEPNTIVFTLQPNEGISLEFQVKRPCPGMFPQLLSMDFRYEDYFGVKLPDAYERLLLDVILGDPTLFMRRDDLEVSWELLDPVLKAWENDPVRFSPYVYPAGTWGPREADLLIERDGRKWRKL” it is “not soluble”. The entry for “MAITDILSAKDIESALSSCQAADSFNYKSFFSTVGLSSKTPDQIKKVFGILDQDKSGFIEEEELQLFLKNFSSSARVLTSAETKAFLAAGDTDGDGKIGVEEFQSLVKA” is “soluble”; for “MSERPDLVDPLPEDEPLPGENIPDTPEGDDPLDPDTQNEVEDPRR” it is “not soluble”. “MGSDKIHHHHHHMPTPTRWQEKLPEAATTYLEGRRLDEVECVISDLPGIARGKAVPASKFAKQDYFYLPDSIFYQTITGDWAEAADEDGWIEKDMLLRPDMSTATAAPWTGDWTLQVIHDAYDRDGNPIPFSPRNVLKHVVSLYEAQGWKPVVAPEMEFYLVARNVDPARDIQPMMGRSGRPAAARQAYSMTAVDEFGPVIDDIYDFAEAQGFEIDGITQEGGAGQLEINLRHGSPVKLADEVFYFKRLIREAALRHDCFATFMAKPIADEPGSAMHIHHSVIDIESGENIFSGPQGGETDAFYHFIGGLQNHLPAGLAVMAPYVNSYRRYVKNHAAPINLEWARDNRTTGIRVPLSSSASRRVENRIAGMDCNPYLGIAVSLACGYLGLMEERRPTRQFKGDAYEGEGDFPQVMGQALDLFDESKALHEVLGPEFARVYSTVKRAEYEEFLQVISPWEREHLLLNV”: the “soluble on expression in E. coli” value was “not soluble”. In the case of “RKDFTKEEVNYLFHGVKTMGNHWNSILWSFPFQKGRRAVDLAHKYHRLI”, the “soluble on expression in E. coli” value was “soluble”. The entry for “MGSDKIHHHHHHMTYLVTGATGGLGGYALNYLKELVPMSDIYALVRSEEKGADLKAAGFNIRVGDYSDAESMKQAFVGIDRVLFVSGAPGNRQVEHENVVNAAKAAGVSYIAYTSFAGADKSTSALAEDHFFTEKVIEKSGIAHTFLRNNWYFENEMPMIGGALSAGKFVYAAENGKVGWALKREYAEVAAKAVAGADFPEILELSGPLMTYEELTKALKEATGKDFDVISSDDKGFVENLVSAGLPQPVAEMFLSFQHDIKNDQLDVTSDDFEKALGKPLTNRVDALRELLK” is “not soluble”; for “MAHHHHHHMEEHPKILSIAGSDSCAGAGMQADLKTAMSLGCHCCTILVVLTAQNTKEVKSIIEVDEKFIVEQLDAIFTDITIEVVKLGVLYSKKIISLIHNYITNINKMREKKLLVVFDPVFVSSSGCMLVENLDYVKYALDLICPLSCIITPNFYECKVILEALNFNIDINNMRTSDLCKLVTEKLNINACLFKSCNIDINTEDENKLYAVDHLCIKNDNDYDTKIKQNISYDVYKLKSKRNPQKDIHGTGCTLSTAISCFLSKKYDIIQACIESKKYIYNCINYAYDLGSKSQGLNHLKAAQHLTDFRELQVIKVD” it is “soluble”. The entry for “MGSDKIHHHHHHMKKVLGGLLVATAVVSLAACSGGEKKASSDVSIKDRYELDEKTPAWKLDKKKEPTKIKWYINSDWTALPFGKDVTTAQIKKDLNVDIEFISGDDSKLNAMISSGDMPDIVTLTEKTGQAALKADSWAYSLNDLAKKYDPYLMKVVNQDTFKWYALEDGKTYGYPNYSNTKADYESGNIPVNDNFVIREDVYNALGKPDVSTPENFEKVMQQIKEKYPEMTPMGFTTVGDGAGPFLDKLQDFLGVPLEDKNGKYYDRNLDKEYLEWLKTFNDVYRAGNISDDSFTDDGATFDEKVKQGNYATMLVAGTSGQGGNFTEFMKKSGTRYIAIDGPSSTSGRKPTLNQTGISGWLSNYITKDAKDPAKVTQLFTYLIDEPGQILTKYGVEGVTYAYNDQGKIDYLPEVKKLEQTDNDAYNKKYGISRFLYFNNDRVNKLKVPMESALTQMQEWGKGKLVPHFVIENINPDAGTPEARANEAIETKLNTTVISMIRAKDDKAFDKSLEDYKAFLKSNKWDAIEKIKSEKMAENRDKLK” is “not soluble”; for “MAHHHHHHMSLADPHPLEAATTPASSLSNSIRLALLPASMKLPRDKSSSPELLAVFLPPDFCCMSVKSSTQNSSLFSSGISTVSPGRGCSVMEWRAIMQPVLLSLFKHWSVAAIRPGLFRRFCVGDVLFARERKLANSTPSAPCVNFPHRSTRVGAPRALRADCSSSSSSCKERKRHEWQDSRASESQEASPLLETSLPLLLWSSG” it is “soluble”; for “MGSDKIHHHHHHMIISVINLKGGSGKTTTAMALATAAARHNRNVSVLDTDPQGDATTWAGDAEDAGETLPFTVDSANIGKLKRLRKTMADDELVIIDCPPAGNVVDVACDVSDFVIVPATQGPFELSHALETAESLDAAGKPYALLLLKVENNKLAGNAVNLIRERGASVFDASVPKRVGMQKVIGHAFPSNLNGYEDVYSELEEVIA” it is “not soluble”. Regarding “MVMTVRVIAPDKTVWDAPAEEVILPSTTGQLGILSNHAPLLTALETGVMRVRQDREWVAIALMGGFAEVENNEVTILVNGAERGDTIDPQEAQQTLEIAEANLRKAEGARQKIEANLALRRARTRVEASNTISS”, the “soluble on expression in E. coli” value is “soluble”.

Turning to “MFAELIRAGLQALIEAEATEAIGAGRYERSDGRIVHRNGHRPKTVSTTAGDIEVQIPKLRAGSFFPSLLERRRRIDKALHAVIMEAYVHGVSTRSVDDLVAAMGVQAGVSKSEVSRICAGLDTEIEAFRTRSLTHTEFPYVFCDATFCKVRVGAHVVSQALVVATGVSIDGTREVLGTAVGDSESYEFWREFLASLKARGLTGVHLVISDAHAGLKAAVAQQFSGASWQRCRVHFMRNLYTAVAAKHAPAVTVAVKTIFAHTDPEEVGAQWDRVADPLCQP”, the “soluble on expression in E. coli” value is reported as “soluble”. Regarding “MGSSHHHHHHSSGRENLYFQGMHYQPKQDLLNDRIILVTGASDGIGREAAMTYARYGATVILLGRNEEKLRQVASHINEETGRQPQWFILDLLTCTSENCQQLAQRIVVNYPRLDGVLHNAGLLGDVCPMSEQNPQVWQDVMQINVNATFMLTQALLPLLLKSDAGSLVFTSSSVGRQGRANWGAYAASKFATEGMMQVLADEYQQRLRVNCINPGGTRTAMRASAFPTEDPQKLKTPADIMPLYLWLMGDDSRRKTGMTFDAQPGRKPGISQ”, the “soluble on expression in E. coli” value is given as “soluble”. Take “MASMTGGQQMGRIPGNSPRMVLLESEQFLTELTRLFQKCRSSGSVFITLKKYDGRTKPIPRKSSVEGLEPAENKCLLRATDGKRKISTVVSSKEVNKFQMAYSNLLRANMDGLKKRDKKNKSKKSKPAQGGEQKLISEEDDSAGSPMPQFQTWEEFSRAAEKLYLADPMKVRVVLKYRHVDGNLCIKVTDDLVCLVYRTDQAQDVKKIEKFHSQLMRLMVAKESRNVTMETE”: the “soluble on expression in E. coli” value is listed as “soluble”.
